Tests used:
[1] = target: the molecule itself; assay: pull-down + SEC; YFPN-AQP0 + YFPC-CaM* co-expressed in S. cerevisiae; membranes solubilised in DDM; HisTrap HP (Ni-NTA) by the His tag on YFPC-CaM*, eluted with 250 mM imidazole; then FSEC on Superose6 Increase (20 mM Tris-HCl pH 7.5, 100 mM NaCl, 5 mM CaCl2, 1% β-OG); fluorescent peak at 15 mL on SDS-PAGE (Coomassie), immunoblot with anti-AQP0 and anti-CaM
[2] = target: the molecule itself; assay: SEC; isolated AQP0 alone on SEC

B1: YFPN‐AQP0 of the recloned pair YFPN‐AQP0 + YFPC‐CaM* (hexa‐histidine tag moved away from the AQP0 moiety) (natural protein, human, UniProt P30301 1-263, looked up)
chain: MWELRSASFWRAIFAEFFATLFYVFFGLGSSLRWAPGPLHVLQVAMAFGLALATLVQSVGHISGAHVNPAVTFAFLVGSQMSLLRAFCYMAAQLLGAVAGAAVLYSVTPPAVRGNLALNTLHPAVSVGQATTVEIFLTLQFVLCIFATYDERRNGQLGSVALAVGFSLALGHLFGMYYTGAGMNPARSFAPAILTGNFTNHWVYWVGPIIGGGLGSLLYDFLLFPRLKSISERLSVLKGAKPDVSNGQPEVTGEPVELNTQAL
notes: aquaporin 0 (AQP0), human; gene codon optimized for yeast (Genscript); As m1 but without the His tag; The purified complex is read by its size (about 500 kDa) as an octameric form of the aquaporin; also called hAQP0; source: S. cerevisiae, co-expressed with YFPC-CaM*, purified as a complex (DDM-solubilised membranes, Ni-NTA, SEC); not shown: YFPN (SYFP2 amino acids 1 to 154, linker KQKVMNH), …
Question: B1 was tested. Which “stoichiometry N” value [1] did it give?
Answer: 8

B2: isolated AQP0 (expressed and purified separately) (natural protein, human, UniProt P30301 1-263, looked up)
chain: B1 chain
notes: also called pure protein AQP0; source: expressed and purified separately
Question: How did the “stoichiometry N” value [2] turn out when B2 was run?
Answer: 4

Source: article PMC5119558, “Applying bimolecular fluorescence complementation to screen and purify aquaporin protein:protein complexes” (Protein Science : A Publication of the Protein Society, 2016)
